Measured values published in patent US20170248602A1.

What was measured:
[1] = target: SNAP-25 peptide comprising amino acids 134-197 of SEQ ID NO:5 (human); assay: SPR (BIAcore 3000), peptide on CM5 chip, 1:1 fit
[2] = target: SNAP-25 peptide comprising amino acids 134-206 of SEQ ID NO:5 (human); assay: SPR (BIAcore 3000), peptide on CM5 chip, 1:1 fit

Row | Substance | Kd [1] [µM] | koff [1] [s⁻¹] | kon [1] [M⁻¹ s⁻¹] | Kd [2] [µM] | koff [2] [s⁻¹] | kon [2] [M⁻¹ s⁻¹]
1 | MC-6050 mouse α-SNAP-25 monoclonal antibody (Research & Diagnostic Antibodies) | 0.000497 | 0.000882 | 1.78e+06 | 19.8 | 0.00607 | 306
2 | MC-6053 mouse α-SNAP-25 monoclonal antibody (Research & Diagnostic Antibodies) | 0.000508 | 0.00118 | 2.32e+06 | 0.24 | 2.56e-05 | 
